The target in this assay is BMP-2 (human) (UniProt P12643). Description: cell-based or functional assay.
Chain of BMP-2 (human) (P12643 283-396 limits assumed): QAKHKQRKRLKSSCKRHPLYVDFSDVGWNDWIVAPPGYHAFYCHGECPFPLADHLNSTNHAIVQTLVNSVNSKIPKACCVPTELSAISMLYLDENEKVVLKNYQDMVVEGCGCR

In the case of “DRAGON (DRG11-Responsive Axonal Guidance and Outgrowth of Neurite), recombinant, expressed in transfected cells (from UniProt Q7TQ33 49-415) (receptor)”, the BMP-dependent signaling, Msx2-Luc reporter in 10T1/2 and HepG2 cells was found to be 8 fold; the luciferase activity of the BRE-luc reporter in LLC-PK1 cells was 14 fold.
